Results published in the nanobody polyreactivity screen of Harvey et al. (2022).

Assay: yeast display, Sf9 membrane polyspecificity reagent, FACS + sequencing; frameworks hold sequencing errors
Method in brief: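 Genes from sorted yeast were amplified by colony PCR, read by MiSeq 2 × 250 sequencing and filtered on CDR length. These cells carried a synthetic nanobody library in Saccharomyces cerevisiae BJ5465 and were sorted by FACS into low and high (top ~1%) gates on anti-HA and streptavidin fluorescence. Polyreactivity is labelled according to the gate of origin.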

| Sequence | polyreactivity (PSR sort gate) |
| --- | --- |
| QVQLVESGVGLVQAGGSLRLSCAASGRTLGVYTMGWYRQAPGKERELVAAITTGGSTKYADSVKGRFTISRDNAKNTVYLQMNSLKPEDTAVYYCATDLVFDKRYWYDYWGQGTQVTVSS | low polyreactivity |
| QVQLVESGVGLVQAGGSLRLSCAASGSIFESYAMGWYRQAPGKVRELVADITYDGGITYYADSVKGRFTISRDNAKNTVYLQMNSLKPEDTAVYYCAKQYYFTFWGQGTQVTVSS | low polyreactivity |
| QVQLVESGVGLVQAGGSLRLSCAASGSIFGYNDMGWYRQAPGKERELVAVITSGGSTNYADSVKGRFTISRDNAKNTVYLQMNSLKPEDTAVYYCNAEGVFGDGRSGFYWYDYWGQGTQVTVSS | low polyreactivity |
| QVQLVESGVGLVQAGGSLRLSCAASGSIFLHNAMGWYRQAPGKERELVAGITGSGGSTYYADSVKGRFTISRDNAKNTVYLQMNSLKPEDTAVYYCAAERYGYERYYWGQGTQVTVSS | high polyreactivity |
| QVQLVESGVGLVQAGGSLRLSCAASGSIFPPYAMGWYRQAPGKERELVAAITSGGRTNYADSVKGRFTISRDNAKNTVYLQMNSLKPEDTEVYYCAQTGSYAKIRPNNDYWGQGTQVTVSS | low polyreactivity |
| QVQLVESGVGLVQAGGSLRLSCAASGSIFYPYAMGWYRQAPGKERELVAAISSGGRTYDADSVKGRFTISRDNAKNTVYLQMNSLKPEDTAVSYCAARPKAYGRPPGYYWGQGTQVTVSS | high polyreactivity |
| QVQLVESGVGLVQAGGSLRLSCAASGSIFYQNAMGWYRQAPGKEREFVAAITWIGGSTYYADSVKGRFTISRDNAKNTVYLQMNSLKPEDTAVYYCARRLLRGSDWGQGTQVTVSS | high polyreactivity |
| QVQLVESGVGLVQAGGSLRLSCAASGSTFDANAMGWYIQAPGKERELVAAITSNGGSTYYADSVKGRFTISRDNAKNTVYLQMNSLKPEDTAVYYCASEQHTVQDYDYWGQGTQVTVSS | low polyreactivity |
| QVQLVESGVGLVQAGGSLRLSCAASGSTFGGNAMGWYRQAPGKEREKVADITFSGGSTSYADSVKGRFTISRDNAKKTVYLQMNSLKPEDTAVYYCNRDYPEIIVAGLDYWGQGSQVTVSS | low polyreactivity |
| QVQLVESGVGLVQAGGSLRLSCAASGSTFPKNVMGWYRQAPGKERELVAAINYSGTSTYYADSVKGRFTISRDNAKNTVYLQMNSLKPEDTAVYYCAARFPLVRYNYWGQGTQVTVSS | high polyreactivity |
| QVQLVESGVGLVQAGGSLRLSCAASGSTFQPYSMGRYRQAPGKERELVAAIRSLAGSTYYADSVKGRFTISRDNAKNTVYLQMNSLKPEDTAVYYCAAGYNPYVGLGWYPIYDFWGQGTQVTVSS | low polyreactivity |
| QVQLVESGVGLVQAGGSLRLSCAASGSTFSAYTMGWYRQAPGKERELVAAIRFDGGRTYYADSVKGRFTISRDNAKNTVYLQMNSLKPEDTAVYYCRAWQSYSYDYSGQGTQVTVSS | high polyreactivity |
| QVQLVESGVGLVQAGGSLRLSCAASGSTFSNNAMGWYIQAPGKERELVAVITGDGGSTYYADSVKGRFTISRDIAKNTVYLQTNSLKPEDTAVYSCNARSSRYSRFRQRFGYWGQVTQVTVSS | low polyreactivity |
| QVQLVESGVGLVQAGGSLRLSCAASGVTFYQYAMGWYRQAPGKERELVAAITRRGGSTSYADSVKGRFTISRDNAKNHVFLKMTRLIPEDTSVYYCNALYGSAFATQVESDYWGQGTQVNVSS | high polyreactivity |
| QVQLVESGVGLVQAGGSLRLSCAAYGRTFYYYAMGWYRQAPGKERELVAGITWSGGSTKYADSVKGRFTISRDNAKNTVYLQMNSLKPEDTAVYYCNARPPRWVRSMDYWGQGTQVTVSS | high polyreactivity |
| QVQLVESGVGLVQAGGSLRLSCADSGFTFFHYARGWYIQAPGKERELVAAIDYSAGSTYYADSVKGRFTISRDNAKNTVYLQMNSLKPEDTAVYYCAADARTSRGRRYYYWGQGTQVTVSS | low polyreactivity |

| Sequence | polyreactivity (PSR sort gate) |
| --- | --- |
| QVQLVESGVGLVQAGGSLRLSCAPSGRTFFWYAMGWYRPAPGKERELVAAIRGAGRTNYADSVKGRFTISRDNAKYTVYLHMNSLKPEDTAVYYCAAQHYPWRRYDYWGLGTQVTVSS | high polyreactivity |
| QVQLVESGVGLVQAGGSLRLSCASSGRIFDLNSMGWYIQAPGKERELVAVIDRDGSTYYADSVKGRFTISRDNAKNTVYLQMNSLKPDDTAVYYCNKYWYSRHVRYWAYYAEQRYDYCGQGTQVTVSS | low polyreactivity |
| QVQLVESGVGLVQAGGSLRLSCASSGSIFTPYAMGCYRQAPGKESELVAAISRSGGSTYYADSVKGRFTISRDNAKNTVFLQMNRLKPEDTAVYYCAVVVYDIYGYESDYWGEGTQVTVSS | low polyreactivity |
| QVQLVESGVGLVQAGGSLRLSSAASGSTFGYYTMGWYRQAPGKERELVASISWSGASTHYADSVKGRFTISRDNAKNTVYLQMNSLKPDDTEVYYCAADWQQQPGTNSFDYWGQGTQVTVSS | low polyreactivity |
| QVQLVESGVGLVQAGGSLRLSWTASGRIFSWYAMGWYRQAPGKERELVADISWGTGSTYYADTVKGRFTISRDNAKHTVDLQMNSLKPEDTAVYYCAADPGYYYEYRRFYYWGQGTQVTVSS | high polyreactivity |
| QVQLVESGVGLVQAGGSLRLTCAASGRIFVTNAKGWYRQAPGKERELVAAITRGVNTNYADSVKGRFTISRDNAKNTVYLQMNSLKPEDTAVYYCAADSSYYYVYGYFPGYYYWGQGTQVTVSS | low polyreactivity |
| QVQLVESGVGLVQAGGSLRVSCAASGRTFRYYAMGWYREAPGKERELVAAISSGTRTNYADSVTGRFTISRDNAKNTVYLQMNSLKPEDTAVYYCNAVTRRSAQGGHDYWGQGTQVTVSS | high polyreactivity |
| QVQLVESGVGLVQAGGSLSLSCAASGRTFYVNAMGWYRQAPGKERELVARITSGGSTYYGDSVKGRFTISRDNAKNTVYLQMNSLKPEDTAVYYCAKKYIGYQEGIHSTRRYDYWGQGTQVTVSS | low polyreactivity |
| QVQLVESGVGLVQAGGSLSLSCAASGSTFYKYTMGWYRQAPGKESELVAAISGSGTTTYYADSVKGRFTISRDYAKNTVFLQINSLKPEDTAVYYCAAETYSPDREYGYWGLGTQVTVSS | high polyreactivity |
| QVQLVESGVGLVQAGGSLSLSSAASGSIFGYYAMGWYRQAPGKERELVAAITSDGDTYYADSVKGRFTISRDNAKNTVYLQINSLKPEDTAVYYCNATYGGPYYIQNDYWGQGTQVTVSS | low polyreactivity |
| QVQLVESGVGLVQAVGSHRLSCAASGFTIINNDMGWYRQAPGKEREFVAAISDSDGTTYYADSVKGRFSISRDNAKNTVYLQMNSLKPEDTAVYYCAADVVPTWEDEYWGQGTQVTVSS | low polyreactivity |
| QVQLVESGVGLVQAVGSLRISCAACGSIFGRYGMGWYRQAPGKERELVAAITSGTRTNYADSVKGRFTISRDNAKNTVYLQMNSLKPEDTAVYYCNALRLRGIYEYGYWGLGTQVTVSS | low polyreactivity |
| QVQLVESGVGLVQAVGSLRLSCAASGIILHYYAMGWYRQAPGKERELVAAISARGGRTYYADSVKGRFTISRDNAKNTVYLQMNSLKPEDTAVYYCAKDTRRSGVSTYTGNMDYWGHGTQVTVSS | high polyreactivity |
| QVQLVESGVGLVQAVGSLRLSCAASGSILITNAMGWYRQAPGKERELVAAISSGGSTYYADSVKGRFTISRDNAKNTVYLQMNSLKPEDTAVYYFAADQLKVGREYVEYDYWGQGTQVTVSS | low polyreactivity |
| QVQLVESGVGSVQAGGSLRLSCAASGATFPGNAMGWYRQAPGKERELVAAIRDRGTSTYDADSVKGRFTISRDNAKNTVYLQMNSLKPEDTAVYYCAAASRVAKGRWRLYDYWGQGTQVTLSS | high polyreactivity |
